From publication PMC6255760 (Nature Communications, 2018)

Experiments:
[1] = biological target: the molecule itself; assay: negative stain EM; FLAG-tagged proteins overexpressed in HEK293T, purified with anti-FLAG M2 agarose beads and concentrated; filaments looked for
[2] = biological target: the molecule itself; assay: SEC; size-exclusion profiles of the purified NOD1/RIP2 and NOD2/RIP2 fusion proteins
[3] = biological target: the molecule itself; assay: induced oligomerization assay; RIP2 and NLRC4–CARD monomers each mixed with their own and with other seed complexes (Supplementary Figure 4d)
[4] = biological target: the molecule itself; assay: negative stain EM; recombinant SNAP–RIP2–CARD seeds co-incubated with refolded monomers (about 20 μM monomer, 10:1 monomer to seed, overnight); SNAP removed with 3C protease for the core filaments; 49,000x
[5] = biological target: the molecule itself; assay: cryo-EM structure; helical reconstruction of core RIP2–CARD–EM filaments, 4.1 Å (FSC = 0.143), Relion 2.0

B1: FLAG–RIP2-kinase-NLRC4–CARD (other, human, UniProt O43353 1-431, looked up)
chain: MNGEAICSALPTIPYHKLADLRYLSRGASGTVSSARHADWRVQVAVKHLHIHTPLLDSERKDVLREAEILHKARFSYILPILGICNEPEFLGIVTEYMPNGSLNELLHRKTEYPDVAWPLRFRILHEIALGVNYLHNMTPPLLHHDLKTQNILLDNEFHVKIADFGLSKWRMMSLSQSRSSKSAPEGGTIIYMPPENYEPGQKSRASIKHDIYSYAVITWEVLSRKQPFEDVTNPLQIMYSVSQGHRPVINEESLPYDIPHRARMISLIESGWAQNPDERPSFLKCLIELEPVLRTFEEITFLEAVIQLKKTKLQSVSSAIHLCDKKKMELSLNIPVNHGPQEESCGSSQLHENSGSPETSRSLPAPQDNDFLSRKAQDCYFMKLHHCPGNHSWDSTISGSQRAAFCDHKTTPCSSAIINPLSTAGNSERLMNFIKDNSRALIQRMGMTVIKQITDDLFVWNVLNREEVNIICCEKVEQDAARGIIHMILKKGSESCNLFLKSLKEWNYPLFQDLNGQSLFHQTSEGDLDD
notes: RIP2 (RIPK2), human, what is left of 1–540 when the CARD domain (432–540) is replaced; NLRC4 CARD, human, residues 1–100, in place of the RIP2–CARD domain; the limit 431 is worked out from the replaced stretch 432–540; also called chimeric RIP2; NLRC4–CARD swapped construct; source: HEK293T, transfected; purified from cellular extracts (EM); in total cellular extracts (sedimentation); not shown: …
Does B1 bind [1]?
Result: binds

B2: top-down NOD1/RIP2 fusion construct (other)
chain: QPGIAQQWIQSKERDIVNQMTEACLNQSLDALLSRDLIMKEDYELVSTKPTRTSKVRQLLDTTDIQGEEFAKVIVQKLKDNKQMGLQPYPEILVVSRSPSLNLLQNKSMMEEQGHSEMEIIPSESHPHIQLLKSNRELLVTHIRNTQCLVDNLLKNDYFSAEDAEIVCACPTQPDKVRKILDLVQSKGEEVSEFFLYLLQQLADAYVDLRPWLLEIGFS
B2 was tested. Which “stoichiometry N” value [2] did it give?
Its value is about 4.

B3: top-down NOD2/RIP2 fusion construct (other)
chain: QPGIAQQWIQSKERDIVNQMTEACLNQSLDALLSRDLIMKEDYELVSTKPTRTSKVRQLLDTTDIQGEEFAKVIVQKLKDNKQMGLQPYPEILVVSRSPSLNLLQNKSMMCSQEAFQAQRSQLVELLVSGSLEGFESVLDWLLSWEVLSWEDYEGFHLLGQPLSHLARRLLDTVWNKGTWACQKLIAAAQEAQADSQSPKLHGCWDPHSLHPARDLQSHRPAIVRRLHSHVENMLDLAWERGFVSQYECDEIRLPIFTPSQRARRLLDLATVKANGLAAFLLQHVQELPVPLALPLEAATCK
How did the “stoichiometry N” value [2] turn out when B3 was run?
The value was about 4.

B4: SNAP–RIP2–CARD (domain or fragment, human, UniProt O43353 432-540, looked up)
chain: QPGIAQQWIQSKREDIVNQMTEACLNQSLDALLSRDLIMKEDYELVSTKPTRTSKVRQLLDTTDIQGEEFAKVIVQKLKDNKQMGLQPYPEILVVSRSPSLNLLQNKSM
modifications: BG-Alexa Fluor 647 on monomers, BG-Alexa Fluor 488 on seeds (native gel assay)
notes: RIP2 (RIPK2), human, CARD domain residues 432–540; a 3C protease site lies between SNAP and the CARD; the methods also name a RIP2–CARD (432–540)–SNAP; also called SNAP–RIP2–CARD seeds; SNAP–RIP2–CARD monomers; source: E. coli BL21(DE3), purified (Ni-NTA, SEC): oligomeric seed fraction; not shown: SNAP-tag, N-terminal, kept
Does B4 bind [3]?
Result: binds

B5: core RIP2–CARD filament (SNAP removed) (domain or fragment, human, UniProt O43353 432-540, looked up)
chain: QPGIAQQWIQSKREDIVNQMTEACLNQSLDALLSRDLIMKEDYELVSTKPTRTSKVRQLLDTTDIQGEEFAKVIVQKLKDNKQMGLQPYPEILVVSRSPSLNLLQNKSM
notes: RIP2 (RIPK2), human, CARD domain residues 432–540; also called 3C-protease-digested core RIP2–CARD thin filament; source: E. coli BL21(DE3); extended SNAP–RIP2–CARD filaments digested with 3C protease, purified (Superose 6); not shown: SNAP-tag, N-terminal, cleaved
Does B5 bind [4]?
Result: binds

B6: RIP2–CARD–EM (domain or fragment, human)
chain: VDEALREAQTKSAQPGIAQQWIQSKREDIVNQMTEACLNQSLDALLSRDLIMKEDYELVSTKPTRTSKVRQLLDTTDIQGEEFAKVIVQKLKDNKQMGLQPYPEILVVSRS
notes: 13 extra amino acids (13aa) attached to the N-terminus of residue 432 of RIP2–CARD; RIP2 (RIPK2), human, CARD domain 432–529 (last 11 residues of 432–540 removed); also called core RIP2–CARD–EM; RIP2–CARD (432–529); source: E. coli BL21(DE3); not shown: SNAP-tag, N-terminal, cleaved
Does B6 bind [5]?
Result: binds
